{"source": "paper PMC4337483", "about": "(Journal of immunology (Baltimore, Md. : 1950), 2015)", "key": {"[1]": {"molecular_target": "BTN3A1 B30.2 domain (BTN3A1 residues 310-513) (Homo sapiens, UniProt O00481)", "test": "isothermal titration calorimetry", "assay_type": "binding"}, "[2]": {"molecular_target": "BTN3A1 residues 310-513 (purified, His tag) (human) (UniProt O00481)", "test": "ITC"}, "[3]": {"molecular_target": "3A1v2 cytoplasmic tail (protein used in ITC) (human)", "test": "ITC"}}, "data": [{"molecule": "C=C(C)CCO[P@@](=O)(O)OP(=O)(O)O", "note": "[IPP]", "values": [{"measurement": "Kd", "setting": "[1]", "result": 672000, "unit": "nM"}]}, {"molecule": "periplakin residues 133-530 (PPL BamH1, purified, His tag) (domain or fragment) DPQVNWAALVEEKLDKLNNQSFGTDLPLVDHQVEEHNIFHNEVKAIGPHLAKDGDKEQNSELRAKYQKLLAASQARQQHLSSLQDYMQRCTNELYWLDQQAKGRMQYDWSDRNLDYPSRRRQYENFINRNLEAKEERINKLHSEGDQLLAAEHPGRNSIEAHMEAVHADWKEYLNLLICEESHLKYMEDYHQFHEDVKDAQELLRKVDSDLNQKYGPDFKDRYQIELLLRELDDQEKVLDKYEDVVQGLQKRGQQVVPLKYRRETPLKPIPVEALCDFEGEQGLISRGYSYTLQKNNGESWELMDSAGNKLIAPAVCFVIPPTDPEALALADSLGSQYRSVRQKAAGSKRTLQQRYEVLKTENPGDASDLQGRQLLAGLDKVASDLDRQEKAITGILR", "values": [{"measurement": "Kd", "setting": "[2]", "result": 2100, "unit": "nM"}, {"measurement": "stoichiometry N", "setting": "[2]", "result": 1}, {"measurement": "Kd", "setting": "[3]", "result": 580, "unit": "nM"}]}]}
